System: MS2 coat protein
Assay: apparent KD of MS2 coat protein; designed switch direction (-1 OFF switch, 1 ON switch): 1; higher = weaker reporter binding
In short: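 The apparent KD reported per design is the median over clusters of curve fits to normalised cluster fluorescence. The RNA switches were transcribed on Illumina chips by stalled E. coli RNA polymerase. SNAP-549-labelled MS2 coat protein was titrated from 0.7 or 1.5 nM, doubling up to 3 µM, in Tris-HCl pH 7.5 buffer containing KCl, MgCl2, BSA, DTT, tRNA and Tween-20, with no input, 200 uM small-molecule ligand, or an oligonucleotide input.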

[1] = input ligand: microRNA oligo, concentration not stated

Sequence	apparent KD of MS2 coat protein (Eterna round: R95, input ligand: FMN 200 uM) [nM]	apparent KD of MS2 coat protein (Eterna round: R95, input ligand: microRNA oligo, concentration not stated) [nM]	apparent KD of MS2 coat protein (Eterna round: R95, input ligand: none) [nM]	apparent KD of MS2 coat protein (input ligand: FMN 200 uM) [nM]	apparent KD of MS2 coat protein [1] [nM]	apparent KD of MS2 coat protein (input ligand: none) [nM]
GCGGAACAUGAGGAUCACCCAUGUAAAGGGUGUAAAGGAUAUUAUUGGGAGAAGGUAGGGUAAGAAGGUUGCUUGG [JR_SS1_Sub088] (puzzle: Same State 1)	609	666	1240			
GCGGUACCUAACAUGAGGAUCACCCAUGUUCCGGAAACGGCACAGGAUAUCUGUCCGAAAAGGUCAGAGAAGGGUGAAAUCCGC [Fiskers NG3ss - 93] (Eterna round: R96, puzzle: Same State NG 3)				361	51.6	93.3
GCUAGAAUAAAUGCUAACAUGAGGAUCACCCAUGUAUGUUGGCAGGAUAUCGUAUGCAAAGCAUACGAGAAGGGCCAUACUAGC [Mat - Same State NG 3 - JL Mod - D27] (Eterna round: R96, puzzle: Same State NG 3)				17.3	20.4	29.5
GCUAGAAUUAAUGCCUACAUGAGGAUCACCCAUGUAUGUAGGCAGGAUAUCGUUUGCAAAGCAAACGAGAAGGGCCUUACUAGC [Mat - Same State NG 3 - JL Mod - D28] (Eterna round: R96, puzzle: Same State NG 3)				21.9	46.1	63.7
GCUAGAAUUAAUGCCUACAUGAGGAUCACCCAUGUAUGUAGGCAGGAUAUCGUUUGCUUUGCAAACGAGAAGGGCCUUACUAGC [JL SSNG3 1.10] (Eterna round: R96, puzzle: Same State NG 3)				18.9	50.8	77.3
GCUAGGAUAUGACGAGGAUCACCCGUUAGAAGGAGCUUCGGCUAGGAUAUGACGAGGAUCACCCGUUAGAAGGAGCUGUACUCU [pwkr ssNG3 DX 2xF5 +2xFMN.9] (Eterna round: R96, puzzle: Same State NG 3)				144	76.7	92.3
GCUAGUAUUAUUGCUAACAUGAGGAUCACCCAUGUAUGUUGGCAGGAUAUCGUUUGCAAAGCAAACGAGAAGGGCUAAACUAGC [Mat - Same State NG 3 - JL Mod - D13] (Eterna round: R96, puzzle: Same State NG 3)				27.7	75.6	98.8
GCUCGACGUAUGGCCUACAUGAGGAUCACCCAUGUGAUUGGGCAGGAUAUCUAGAUGCAGGAUGUAGAGAAGGGCCCGUCGAGC [SameState NG3 #47] (Eterna round: R96, puzzle: Same State NG 3)				393	92	230
GCUCGAUGAACGUCCUACAUGAGGAUCACCCAUGUUCGUGGGCAGGAUAUUUACAUGCAGAGUGUAGAGAAGGGCCCAUCGAGC [SameState NG3 #64] (Eterna round: R96, puzzle: Same State NG 3)				67.8	74.6	165
GCUCGAUGAGCUGUUUACAUGAGGAUCACCCAUGUAGAUGCGGAGGAUAUUUACGUGCUUUAUGUAGAGAAGGCCGUAUCGAGC [SameState NG3 #80] (Eterna round: R96, puzzle: Same State NG 3)				14	24.5	24.1
GCUCGAUGAUAGUCCUACAUGAGGAUCACCCAUGUAAGUGGGCAGGAUAUCUACAUGCAGAAUGUAGAGAAGGGCCCGUCGAGC [SameState NG3 #56] (Eterna round: R96, puzzle: Same State NG 3)				16.1	16.4	23.2
GCUCGGAUGAUGGCCCACAUGAGGAUCACCCAUGUGAGUGGGCAGGAUAUCUAGAUUAAGGAUGUAGAGAAGGGCCUACCGAGC [SameState NG3 #34] (Eterna round: R96, puzzle: Same State NG 3)				2070	100	759
